Assay results reported in patent publication WO2021218879A1 (dated 2021).
Where two headings read alike, the source gives them in different places.

Key:
[1] = target: T1, SARS-CoV-2-S1-his protein (SARS-CoV-2, UniProt P0DTC2 16-685)
[2] = target: T2, SARS-CoV-2 RBD protein (SARS-CoV-2, UniProt P0DTC2 319-541)
[3] = target: T3, SARS-CoV-2 S full-length protein on pseudovirus (SARS-CoV-2, UniProt P0DTC2 14-1273); assay: cell-based or functional assay
[4] = target: T4, SARS-CoV-2 S1 protein on HF-nCoV-SPIKE-8D3 cells (SARS-CoV-2, UniProt P0DTC2 14-1273); assay: flow cytometry on HF-nCoV-SPIKE-8D3 cells, titrated antibody
T4 construct: whole, on cells

[5] = target: T1, SARS-CoV-2-S1-his protein; assay: ELISA, S1 protein coated at varied concentration, antibody at 1 ug/mL
[6] = target: T5, SARS-CoV-2 ECD protein (SARS-CoV-2, UniProt P0DTC2 14-1213); assay: ELISA, ECD protein coated at varied concentration, antibody at 1 ug/mL
T5 construct: extracellular domain

[7] = target: T1, SARS-CoV-2-S1-his protein; remark: listed apart in the source
[8] = target: T3, SARS-CoV-2 S full-length protein on …; assay: cell-based or functional assay; remark: listed apart in the source
[9] = target: CD16a-AVI-His(V158)+BirA protein (UniProt P08637 17-208); assay: ELISA, biotinylated CD16a captured on avidin, titrated antibody
[10] = target: T6, CD32a-AVI-His(R131)+BirA protein (UniProt P12318 36-218); assay: ELISA, biotinylated CD32a captured on avidin, titrated antibody
T6 sequence: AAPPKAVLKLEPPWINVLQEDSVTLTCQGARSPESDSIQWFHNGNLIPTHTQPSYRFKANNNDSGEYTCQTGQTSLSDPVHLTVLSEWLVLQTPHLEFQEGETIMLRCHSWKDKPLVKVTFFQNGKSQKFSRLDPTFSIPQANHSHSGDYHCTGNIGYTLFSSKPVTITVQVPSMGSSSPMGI

[11] = target: T7, CD32b-AVI-HIS+BirA protein (UniProt P31994 43-217); assay: ELISA, biotinylated CD32b captured on avidin, titrated antibody
T7 sequence: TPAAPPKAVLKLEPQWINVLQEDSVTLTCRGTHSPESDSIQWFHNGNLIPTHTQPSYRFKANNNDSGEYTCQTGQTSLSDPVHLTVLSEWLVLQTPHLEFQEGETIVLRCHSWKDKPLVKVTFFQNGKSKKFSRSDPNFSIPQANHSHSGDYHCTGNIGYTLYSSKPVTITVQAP

[12] = target: T1, SARS-CoV-2-S1-his protein; assay: ELISA, S1 protein coated at varied concentration, antibody at 1 ug/mL; remark: listed apart in the source
[13] = target: T1, SARS-CoV-2-S1-his protein; assay: BLI (OctetRED96e), biotinylated S1 on SA sensor, antibody in solution
[14] = target: T5, SARS-CoV-2 ECD protein; assay: ELISA, ECD protein coated at varied concentration, antibody at 1 ug/mL; remark: listed apart in the source
[15] = target: T2, SARS-CoV-2 RBD protein; assay: ELISA, RBD protein coated at varied concentration, antibody at 1 ug/mL
[16] = target: T2, SARS-CoV-2 RBD protein; assay: BLI (OctetRED96e), biotinylated RBD on SA sensor, antibody in solution
[17] = target: CD64-AVI-His+BirA protein (UniProt P12314 16-288); assay: ELISA, biotinylated CD64 captured on avidin, titrated antibody
Chain of CD64-AVI-His+BirA protein (P12314 16-288 limits assumed): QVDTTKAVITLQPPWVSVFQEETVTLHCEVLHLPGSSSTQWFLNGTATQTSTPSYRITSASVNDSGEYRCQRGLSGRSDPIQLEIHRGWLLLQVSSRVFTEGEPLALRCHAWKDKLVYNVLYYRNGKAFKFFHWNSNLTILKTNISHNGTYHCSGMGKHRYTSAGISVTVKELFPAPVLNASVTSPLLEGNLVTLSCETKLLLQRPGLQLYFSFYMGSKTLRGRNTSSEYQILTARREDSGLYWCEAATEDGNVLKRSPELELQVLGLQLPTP

Chain of CD16a-AVI-His(V158)+BirA protein (P08637 17-208 F176V limits assumed): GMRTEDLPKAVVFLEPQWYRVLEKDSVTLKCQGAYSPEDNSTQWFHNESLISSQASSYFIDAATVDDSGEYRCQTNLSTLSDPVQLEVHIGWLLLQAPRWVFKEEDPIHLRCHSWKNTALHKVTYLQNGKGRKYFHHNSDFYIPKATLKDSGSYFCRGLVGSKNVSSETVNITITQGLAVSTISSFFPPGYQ

B1: human-mouse chimeric antibody CoV2-mhB27 (antibody, V domains shown)
VH: EVKLVESGGGLVKPGGSLKLSCAASGFTFSNYGMSWVRQSPEKRLEWVAEISSGGSYTYYPDTVTGRFTISRDNAKNTLYLEMSSLRSEDTAMYYCARFRYDGGGGTVDYWGQGTSVTVSS
VL: not shown
notes: also called murine antibody CoV2-mhB27
[1]
  EC50: 0.024 µg/mL
[2]
  EC50: 0.044 µg/mL
[3]
  neutralization IC50, SARS-CoV-2 pseudovirus on 293FT-ACE2 cells (luciferase): 0.0087 µg/mL
[4]
  EC50: 2.77 µg/mL
[5]
  EC50: 0.116 µg/mL
[6]
  EC50: 0.307 µg/mL

B2: humanized antibody CoV2-HB27 (antibody)
heavy: not shown
light: EIVLTQSPATLSLSPGERATLSCRASESVDNYGISFMNWFQQKPGQAPRLLIYAASNQGSGVPARFSGSGSGTDFSLTISSLEPEDFAVYFCQQSKEVPRTFGQGTKVEIKRTVAAPSVFIFPPSDEQLKSGTASVVCLLNNFYPREAKVQWKVDNALQSGNSQESVTEQDSKDSTYSLSSTLTLSKADYEKHKVYACEVTHQGLSSPVTKSFNRGEC
notes: also called IgG1 subtype CoV2-HB27 antibody; CoV2-HB27-IgG1
[7]
  EC50: 0.179 µg/mL
[8]
  neutralization IC50, SARS-CoV-2 pseudovirus on 293FT-ACE2 cells (luciferase): 0.0059 µg/mL
[9]
  binding result: binds
[10]
  binding result: binds
[11]
  binding result: binds
[12]
  EC50: 0.183 µg/mL
[13]
  Kd: 0.37 nM
  koff: 0.00039 s⁻¹
  kon: 1.1e+06 M⁻¹ s⁻¹
[14]
  EC50: 0.972 µg/mL
[15]
  EC50: 0.0222 µg/mL
[16]
  Kd: 0.039 nM
  koff: 1.4e-05 s⁻¹
  kon: 370000 M⁻¹ s⁻¹

B3: CoV2-HB27-Ae0-IgG1 (antibody)
heavy: not shown
light: EIVLTQSPATLSLSPGERATLSCRASESVDNYGISFMNWFQQKPGQAPRLLIYAASNQGSGVPARFSGSGSGTDFSLTISSLEPEDFAVYFCQQSKEVPRTFGQGTKVEIKRTVAAPSVFIFPPSDEQLKSGTASVVCLLNNFYPREAKVQWKVDNALQSGNSQESVTEQDSKDSTYSLSSTLTLSKADYEKHKVYACEVTHQGLSSPVTKSFNRGEC
notes: also called Ae0-IgG1 form antibody; defucosylated IgG1 subtype CoV2-HB27
[9]
  binding result: binds
[10]
  binding result: binds
[11]
  binding result: binds

B4: CoV2-HB27-Fd6-IgG1 (antibody)
heavy: not shown
light: EIVLTQSPATLSLSPGERATLSCRASESVDNYGISFMNWFQQKPGQAPRLLIYAASNQGSGVPARFSGSGSGTDFSLTISSLEPEDFAVYFCQQSKEVPRTFGQGTKVEIKRTVAAPSVFIFPPSDEQLKSGTASVVCLLNNFYPREAKVQWKVDNALQSGNSQESVTEQDSKDSTYSLSSTLTLSKADYEKHKVYACEVTHQGLSSPVTKSFNRGEC
notes: also called Fd6-IgG1 form antibody; reduced Fc function IgG1 subtype humanized antibody
[17]
  binding result: binds
[10]
  binding result: no binding
[11]
  binding result: no binding
